In US20240343814A1:

Columns and labels:
[1] = biological target: Recombinant human his-tagged IGF 1R extracellular domain protein (human) (UniProt P08069); assay: SPR, captured IgG, IGF-1R ECD-his analyte, dissociation pH 6
[2] = biological target: Recombinant human his-tagged IGF 1R extracellular domain protein (human) (UniProt P08069); assay: SPR, captured IgG, IGF-1R ECD-his analyte, dissociation pH 7.4

Binder	Kd [1] [nM]	koff [1] [s⁻¹]	kon [1] [M⁻¹ s⁻¹]	Kd [2] [nM]	koff [2] [s⁻¹]	kon [2] [M⁻¹ s⁻¹]
VRDN-02501 (antibody, V domains shown) VH: EVQLVQSGGGLVKPGGSLRLSCAASHFTFSSFAMHWVRQAPGKGLEWISVIDTRGATYYADSVKGRFTISRDNAKNSLYLQMNSLRAEDTAVYYCARLGNFYYGMDVWGQGTTVTVSS VL: EIVLTQSPGTLSVSPGERATLSCRASQSIGSSLHWYQQKPGQAPRLLIKYASQSLSGIPDRFSGSGSGTDFTLTISRLEPEDFAVYYCHQSSRLPHTFGQGTKVEIK	0.0259	1e-06	38600	0.911	0.00015	165000
VRDN-02570 (antibody, V domains shown) VH: EVQLVQSGGGLVKPGGSLRLSCAASGFTFSSFHMHWVRQAPGKGLEWISVIDTRGATYYADSVKGRFTISRDNAKNSLYLQMNSLRAEDTAVYYCARLGNFYYGHDVWGQGTTVTVSS VL: EIVLTQSPGTLSVSPGERATLSCRASQSIGSSLHWYQQKPGQAPRLLIKHASQSLSGIPDRFSGSGSGTDFTLTISRLEPEDFAVYYCHQSSRLPHTFGQGTKVEIK	1.76	0.000376	214000	–	–	–
VRDN-02516 (antibody, V domains shown) VH: EVQLVQSGGGLVKPGGSLRLSCAASGFTFSSFAMHWVRQAPGKGLEWISVIDTRGATYYADSVKGRFTISRDNAKNSLYLQMNSLRAEDTAVYYCHRLGNFYYGMDVWGQGTTVTVSS VL: EIVLTQSPGTLSVSPGERATLSCRASQSIGSSLHWYQQKPGQAPRLLIKYASQSLSGIPDRFSGSGSGTDFTLTISRLEPEDFAVYYCHQSSRLPHTFGQGTKVEIK	16.8	0.00196	117000	2.35	0.000418	178000
VRDN-02554 (antibody, V domains shown) VH: EVQLVQSGGGLVKPGGSLRLSCAASGFTFSSFAMHWVRQAPGKGLEWISVIHTRGATYYADSVKGRFTISRDNAKNSLYLQMNSLRAEDTAVYYCARLGNFYYGMDVWGQGTTVTVSS VL: EIVLTQSPGTLSVSPGERATLSCRASQSIGSSLHWYQQKPGQAPRLLIKHASQSLSGIPDRFSGSGSGTDFTLTISRLEPEDFAVYYCHQSSRLPHTFGQGTKVEIK	1.53	0.000152	99500	–	–	–
VRDN-02563 (antibody, V domains shown) VH: EVQLVQSGGGLVKPGGSLRLSCAASGFTFSSFAMHWVRQAPGKGLEWISVIHTRGATYYADSVKGRFTISRDNAKNSLYLQMNSLRAEDTAVYYCARLGNFYYHMDVWGQGTTVTVSS VL: EIVLTQSPGTLSVSPGERATLSCRASQSIGSSLHWYQQKPGQAPRLLIKYASQSLSGIPDRFSGSGSGTDFTLTISRLEPEDFAVYYCHQSSRLPHTFGQGTKVEIK	3.46	0.000353	102000	–	–	–
VRDN-02564 (antibody, V domains shown) VH: EVQLVQSGGGLVKPGGSLRLSCAASGFTFSSFAMHWVRQAPGKGLEWISVIHTRGATYYADSVKGRFTISRDNAKNSLYLQMNSLRAEDTAVYYCARLGNFYYGHDVWGQGTTVTVSS VL: EIVLTQSPGTLSVSPGERATLSCRASQSIGSSLHWYQQKPGQAPRLLIKYASQSLSGIPDRFSGSGSGTDFTLTISRLEPEDFAVYYCHQSSRLPHTFGQGTKVEIK	1.48	0.000507	344000	–	–	–
VRDN-02568 (antibody, V domains shown) VH: EVQLVQSGGGLVKPGGSLRLSCAASGFTFSSFHMHWVRQAPGKGLEWISVIHTRGATYYADSVKGRFTISRDNAKNSLYLQMNSLRAEDTAVYYCARLGNFYYGHDVWGQGTTVTVSS VL: EIVLTQSPGTLSVSPGERATLSCRASQSIGSSLHWYQQKPGQAPRLLIKYASQSLSGIPDRFSGSGSGTDFTLTISRLEPEDFAVYYCHQSSRLPHTFGQGTKVEIK	29.9	0.000129	4320	–	–	–
VRDN-02558 (antibody, V domains shown) VH: EVQLVQSGGGLVKPGGSLRLSCAASGFTFSSFHMHWVRQAPGKGLEWISVIHTRGATYYADSVKGRFTISRDNAKNSLYLQMNSLRAEDTAVYYCARLGNFYYGMDVWGQGTTVTVSS VL: EIVLTQSPGTLSVSPGERATLSCRASQSIGSSLHWYQQKPGQAPRLLIKYASQSLSGIPDRFSGSGSGTDFTLTISRLEPEDFAVYYCHQSSRLPHTFGQGTKVEIK	3.15	0.00017	53900	–	–	–
VRDN-02555 (antibody, V domains shown) VH: EVQLVQSGGGLVKPGGSLRLSCAASGFTFSSFAMHWVRQAPGKGLEWISVIDTRGATYYADSVKGRFTISRDNAKNSLYLQMNSLRAEDTAVYYCHRLGNFYYGMDVWGQGTTVTVSS VL: EIVLTQSPGTLSVSPGERATLSCRASQSIGSSLHWYQQKPGQAPRLLIKHASQSLSGIPDRFSGSGSGTDFTLTISRLEPEDFAVYYCHQSSRLPHTFGQGTKVEIK	0.851	0.000418	491000	–	–	–
VRDN-02518 (antibody, V domains shown) VH: EVQLVQSGGGLVKPGGSLRLSCAASGFTFSSFAMHWVRQAPGKGLEWISVIDTRGATYYADSVKGRFTISRDNAKNSLYLQMNSLRAEDTAVYYCARHGNFYYGMDVWGQGTTVTVSS VL: EIVLTQSPGTLSVSPGERATLSCRASQSIGSSLHWYQQKPGQAPRLLIKYASQSLSGIPDRFSGSGSGTDFTLTISRLEPEDFAVYYCHQSSRLPHTFGQGTKVEIK	0.0385	1e-06	26000	0.549	6.31e-05	115000
VRDN-02517 (antibody, V domains shown) VH: EVQLVQSGGGLVKPGGSLRLSCAASGFTFSSFAMHWVRQAPGKGLEWISVIDTRGATYYADSVKGRFTISRDNAKNSLYLQMNSLRAEDTAVYYCAHLGNFYYGMDVWGQGTTVTVSS VL: EIVLTQSPGTLSVSPGERATLSCRASQSIGSSLHWYQQKPGQAPRLLIKYASQSLSGIPDRFSGSGSGTDFTLTISRLEPEDFAVYYCHQSSRLPHTFGQGTKVEIK	5.07	0.000265	52300	10.7	0.00264	247000
VRDN-02571 (antibody, V domains shown) VH: EVQLVQSGGGLVKPGGSLRLSCAASGFTFSSFAMHWVRQAPGKGLEWISVIHTRGATYYADSVKGRFTISRDNAKNSLYLQMNSLRAEDTAVYYCARLGNFYYGHDVWGQGTTVTVSS VL: EIVLTQSPGTLSVSPGERATLSCRASQSIGSSLHWYQQKPGQAPRLLIKHASQSLSGIPDRFSGSGSGTDFTLTISRLEPEDFAVYYCHQSSRLPHTFGQGTKVEIK	2.15	0.000344	160000	–	–	–
VRDN-02538 (antibody, V domains shown) VH: EVQLVQSGGGLVKPGGSLRLSCAASGFTFSSFAMHWVRQAPGKGLEWISVIDTRGATYYADSVKGRFTISRDNAKNSLYLQMNSLRAEDTAVYYCARLGNFYYGMDVWGQGTTVTVSS VL: EIVLTQSPGTLSVSPGERATLSCRASQSIGSSLHWYQQKPGQAPRLLIHYASQSLSGIPDRFSGSGSGTDFTLTISRLEPEDFAVYYCHQSSRLPHTFGQGTKVEIK	0.0463	1e-06	21600	–	–	–
VRDN-02569 (antibody, V domains shown) VH: EVQLVQSGGGLVKPGGSLRLSCAASGFTFSSFHMHWVRQAPGKGLEWISVIHTRGATYYADSVKGRFTISRDNAKNSLYLQMNSLRAEDTAVYYCARLGNFYYGMDVWGQGTTVTVSS VL: EIVLTQSPGTLSVSPGERATLSCRASQSIGSSLHWYQQKPGQAPRLLIKHASQSLSGIPDRFSGSGSGTDFTLTISRLEPEDFAVYYCHQSSRLPHTFGQGTKVEIK	1.51	0.000516	342000	–	–	–
VRDN-02562 (antibody, V domains shown) VH: EVQLVQSGGGLVKPGGSLRLSCAASGFTFSSFAMHWVRQAPGKGLEWISVIHTRGATYYADSVKGRFTISRDNAKNSLYLQMNSLRAEDTAVYYCHRLGNFYYGMDVWGQGTTVTVSS VL: EIVLTQSPGTLSVSPGERATLSCRASQSIGSSLHWYQQKPGQAPRLLIKYASQSLSGIPDRFSGSGSGTDFTLTISRLEPEDFAVYYCHQSSRLPHTFGQGTKVEIK	1.34	0.00018	135000	–	–	–
VRDN-02553 (antibody, V domains shown) VH: EVQLVQSGGGLVKPGGSLRLSCAASGFTFSSFHMHWVRQAPGKGLEWISVIDTRGATYYADSVKGRFTISRDNAKNSLYLQMNSLRAEDTAVYYCARLGNFYYGMDVWGQGTTVTVSS VL: EIVLTQSPGTLSVSPGERATLSCRASQSIGSSLHWYQQKPGQAPRLLIKHASQSLSGIPDRFSGSGSGTDFTLTISRLEPEDFAVYYCHQSSRLPHTFGQGTKVEIK	1.56	0.000534	341000	–	–	–
VRDN-02561 (antibody, V domains shown) VH: EVQLVQSGGGLVKPGGSLRLSCAASGFTFSSFHMHWVRQAPGKGLEWISVIDTRGATYYADSVKGRFTISRDNAKNSLYLQMNSLRAEDTAVYYCARLGNFYYGHDVWGQGTTVTVSS VL: EIVLTQSPGTLSVSPGERATLSCRASQSIGSSLHWYQQKPGQAPRLLIKYASQSLSGIPDRFSGSGSGTDFTLTISRLEPEDFAVYYCHQSSRLPHTFGQGTKVEIK	1.64	0.000539	329000	–	–	–
VRDN-02519 (antibody, V domains shown) VH: EVQLVQSGGGLVKPGGSLRLSCAASGFTFSSFAMHWVRQAPGKGLEWISVIDTRGATYYADSVKGRFTISRDNAKNSLYLQMNSLRAEDTAVYYCARLHNFYYGMDVWGQGTTVTVSS VL: EIVLTQSPGTLSVSPGERATLSCRASQSIGSSLHWYQQKPGQAPRLLIKYASQSLSGIPDRFSGSGSGTDFTLTISRLEPEDFAVYYCHQSSRLPHTFGQGTKVEIK	16.9	0.000627	37100	10.5	0.00366	348000
VRDN-02520 (antibody, V domains shown) VH: EVQLVQSGGGLVKPGGSLRLSCAASGFTFSSFAMHWVRQAPGKGLEWISVIDTRGATYYADSVKGRFTISRDNAKNSLYLQMNSLRAEDTAVYYCARLGHFYYGMDVWGQGTTVTVSS VL: EIVLTQSPGTLSVSPGERATLSCRASQSIGSSLHWYQQKPGQAPRLLIKYASQSLSGIPDRFSGSGSGTDFTLTISRLEPEDFAVYYCHQSSRLPHTFGQGTKVEIK	0.0242	1e-06	41400	0.0069	1e-06	145000
